From patent US20150139990A1 (DAINIPPON SUMITOMO PHARMA, published 2015) come the findings set out here.

Changes are numbered by the printed parent chain. Numbers in names are those of the source.

The chains are these.
T1: human CD81 mutant V135A (human, UniProt P60033 1-236, limits assumed)
T1 construct: as m30; not shown: C-terminal V5 and 6xHis tags
T1 sequence: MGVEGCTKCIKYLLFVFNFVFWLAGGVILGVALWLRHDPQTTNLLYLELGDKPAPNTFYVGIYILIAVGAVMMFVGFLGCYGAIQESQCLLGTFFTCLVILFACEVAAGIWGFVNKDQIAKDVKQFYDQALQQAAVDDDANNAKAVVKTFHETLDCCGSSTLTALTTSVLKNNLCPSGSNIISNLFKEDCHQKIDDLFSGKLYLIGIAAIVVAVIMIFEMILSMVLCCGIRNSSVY

T2: human CD81 mutant D137A (human, UniProt P60033 1-236, limits assumed)
T2 construct: as m30; not shown: C-terminal V5 and 6xHis tags
T2 sequence: T1 sequence with A135V, D137A

T3: human CD81 mutant A164T (human, UniProt P60033 1-236, limits assumed)
T3 construct: as m30; not shown: C-terminal V5 and 6xHis tags
T3 sequence: T1 sequence with A135V, A164T

T4: human CD81 mutant L165A (human, UniProt P60033 1-236, limits assumed)
T4 construct: as m30; not shown: C-terminal V5 and 6xHis tags
T4 sequence: T1 sequence with A135V, L165A

T5: human CD81 mutant V169A (human, UniProt P60033 1-236, limits assumed)
T5 construct: as m30; not shown: C-terminal V5 and 6xHis tags
T5 sequence: T1 sequence with A135V, V169A

T6: human CD81 mutant I194A (human, UniProt P60033 1-236, limits assumed)
T6 construct: as m30; not shown: C-terminal V5 and 6xHis tags
T6 sequence: T1 sequence with A135V, I194A

T7: human CD81 mutant A164V (human, UniProt P60033 1-236, limits assumed)
T7 construct: as m30; not shown: C-terminal V5 and 6xHis tags
T7 sequence: T1 sequence with A135V, A164V

T8: human CD81 mutant V169L (human, UniProt P60033 1-236, limits assumed)
T8 construct: as m30; not shown: C-terminal V5 and 6xHis tags
T8 sequence: T1 sequence with A135V, V169L

T9: human CD81 on CD81-expressing cells (Jurkat E6.1, human PBMC, Ramos) (human, UniProt P60033 1-236)
T9 sequence: T1 sequence with A135V

B1: 002-D03 (antibody, human IgG4 S228P, lambda, V domains shown)
VH: EVQLLESGGGLVQPGGSLRLSCAASGFTFRSNYMSWVRQAPGKGLEWVSYISSSSTYTDYADSVKGRFTISRDNSKNTLYLQMNSLRAEDTAVYYCARYSYGRDNFDYWGQGTLVTVSS
VL: QSVLTQPPSASGTPGQRVTISCTGSTSNIGAGYDTHWYQQLPGTAPKLLIYGNSNRPSGVPDRFSGSKSGTSASLAISGLRSEDEADYYCQSYDTNLSVWVFGGGTKLTVLG
notes: IgG4 S228P
B2: 002-F07 (antibody, human IgG4 S228P, lambda, V domains shown)
VH: B1 VH with R30S, N105S
VL: B1 VL with P8F, Y33F, S72T
notes: IgG4 S228P
B3: 003-A11 (antibody, human IgG4 S228P, lambda, V domains shown)
VH: B1 VH with R30G
VL: B1 VL with V99G
notes: IgG4 S228P
B4: 002-H02 (antibody, human IgG4 S228P, lambda, V domains shown)
VH: B1 VH with R30S, N105S
VL: B1 VL with P8S, D34G
notes: IgG4 S228P
B5: 002-D10 (antibody, human IgG4 S228P, lambda, V domains shown)
VH: B1 VH with R30S, L45P
VL: B1 VL with P8S, I77V, D87E, V99G
notes: IgG4 S228P

The target in one experiment is T1, human CD81 mutant V135A. The experiment is described as follows: ELISA.
B1 registered a relative binding affinity below 20%.

Take B2: the relative binding affinity was below 20%.

The molecule B3 showed a relative binding affinity below 20%.

For the molecule B4, the relative binding affinity is below 20%.

Molecule B5 registered a relative binding affinity below 20%.

A further experiment addresses T2, human CD81 mutant D137A. As to the kind of experiment: ELISA. (In an ELISA, binding on a coated surface is turned into a signal by an enzyme label.)
In turn, B1 came in with a relative binding affinity below 20%.

Another experiment addresses T3, human CD81 mutant A164T. As to the kind of experiment: ELISA.
The molecule B1 registered a relative binding affinity below 20%.

On to B2, for which the relative binding affinity is below 20%.

B3: the relative binding affinity was below 20%.

The molecule B4 showed a relative binding affinity below 20%.

For B5, the relative binding affinity was below 20%.

The target of another experiment is T4, human CD81 mutant L165A. As to the kind of experiment: ELISA.
B1: the relative binding affinity is below 20%.

Consider B2, for which the relative binding affinity was below 20%.

Molecule B3 came in with a relative binding affinity below 20%.

In turn, B4 had a relative binding affinity below 20%.

For B5, the relative binding affinity was below 20%.

The target of another experiment is T5, human CD81 mutant V169A. As to the kind of experiment: ELISA.
B1 yielded a relative binding affinity below 20%.

On to B2, for which the relative binding affinity was below 20%.

B3 had a relative binding affinity below 20%.

For the molecule B4, the relative binding affinity is below 20%.

B5 came in with a relative binding affinity below 20%.

The target in another experiment is T6, human CD81 mutant I194A. The experiment is described as follows: ELISA.
B2 returned a relative binding affinity below 20%.

As to B3, the relative binding affinity is below 20%.

The target in another experiment is T7, human CD81 mutant A164V. The experiment is described as follows: ELISA.
Regarding B1, the relative binding affinity is below 20%.

The molecule B2 yielded a relative binding affinity below 20%.

B3: the relative binding affinity was below 20%.

Molecule B4 gave a relative binding affinity below 20%.

Molecule B5 yielded a relative binding affinity below 20%.

A further experiment deals with T8, human CD81 mutant V169L. As to the kind of experiment: ELISA.
Molecule B1 yielded a relative binding affinity below 20%.

In turn, B2 came in with a relative binding affinity below 20%.

Consider B3, for which the relative binding affinity was below 20%.

Turning to B4, the relative binding affinity was below 20%.

The molecule B5 showed a relative binding affinity below 20%.

The target in the next experiment is T9, human CD81 on CD81-expressing cells …. The experiment is described as follows: cell-based or functional assay.
On to B1, for which the “Jurkat chemotaxis (% of control IgG4) at 0.001 µg/mL” value amounted to 105%, the “Jurkat chemotaxis (% of control IgG4) at 0.01 µg/mL” value turned out to be 91%, the “Jurkat chemotaxis (% of control IgG4) at 0.1 µg/mL” value came out at 25% and the “Jurkat chemotaxis (% of control IgG4) at 1 µg/mL” value amounted to 14%. Moreover, the “Jurkat chemotaxis (% of control IgG4) at 10 µg/mL” value amounted to 16%.

Regarding B2, the “Jurkat chemotaxis (% of control IgG4) at 0.001 µg/mL” value was 101%, the “Jurkat chemotaxis (% of control IgG4) at 0.01 µg/mL” value is 88%, the “Jurkat chemotaxis (% of control IgG4) at 0.1 µg/mL” value came out at 38% and the “Jurkat chemotaxis (% of control IgG4) at 1 µg/mL” value was 13%. Moreover, the “Jurkat chemotaxis (% of control IgG4) at 10 µg/mL” value worked out at 15%.

Consider B3, for which the “Jurkat chemotaxis (% of control IgG4) at 0.001 µg/mL” value was determined as 91%, the “Jurkat chemotaxis (% of control IgG4) at 0.01 µg/mL” value stood at 86%, the “Jurkat chemotaxis (% of control IgG4) at 0.1 µg/mL” value is 16% and the “Jurkat chemotaxis (% of control IgG4) at 1 µg/mL” value amounted to 1%. Further, the “Jurkat chemotaxis (% of control IgG4) at 10 µg/mL” value was determined as 2%.

For B4, the “Jurkat chemotaxis (% of control IgG4) at 0.001 µg/mL” value came out at 87%, the “Jurkat chemotaxis (% of control IgG4) at 0.01 µg/mL” value was found to be 85%, the “Jurkat chemotaxis (% of control IgG4) at 0.1 µg/mL” value is -1% and the “Jurkat chemotaxis (% of control IgG4) at 1 µg/mL” value is -10%. For the same molecule, the “Jurkat chemotaxis (% of control IgG4) at 10 µg/mL” value was -2%.

B5: the “Jurkat chemotaxis (% of control IgG4) at 0.001 µg/mL” value came to 97%, the “Jurkat chemotaxis (% of control IgG4) at 0.01 µg/mL” value was determined as 87%, the “Jurkat chemotaxis (% of control IgG4) at 0.1 µg/mL” value was determined as 34% and the “Jurkat chemotaxis (% of control IgG4) at 1 µg/mL” value is 6%. The “Jurkat chemotaxis (% of control IgG4) at 10 µg/mL” value turned out to be 10%.
